Test results published in patent US20140206609A1 (Sanofi, published 2014).
*1 amine or outer side, *2 acyl side, *3 side chain or, on linkers, in order; H or OH if unused. Where no end group is shown, it is not given here. Side-chain parts run from the residue outwards. [ ]: non-standard residue; d: D form. The star is where a group is joined. henicosanoyl = CCCCCCCCCCCCCCCCCCCCC(=O)*; γGlu = O=C(O)[C@H](CCC(=O)[*:2])N[*:1]; Stearoyl = CCCCCCCCCCCCCCCCCC(=O)*; Palmitoyl = CCCCCCCCCCCCCCCC(=O)*; Aib = CC(C)(N)C(=O)O

T1: human GIP receptor (human, UniProt P48546 22-466)
T1 sequence (looked up): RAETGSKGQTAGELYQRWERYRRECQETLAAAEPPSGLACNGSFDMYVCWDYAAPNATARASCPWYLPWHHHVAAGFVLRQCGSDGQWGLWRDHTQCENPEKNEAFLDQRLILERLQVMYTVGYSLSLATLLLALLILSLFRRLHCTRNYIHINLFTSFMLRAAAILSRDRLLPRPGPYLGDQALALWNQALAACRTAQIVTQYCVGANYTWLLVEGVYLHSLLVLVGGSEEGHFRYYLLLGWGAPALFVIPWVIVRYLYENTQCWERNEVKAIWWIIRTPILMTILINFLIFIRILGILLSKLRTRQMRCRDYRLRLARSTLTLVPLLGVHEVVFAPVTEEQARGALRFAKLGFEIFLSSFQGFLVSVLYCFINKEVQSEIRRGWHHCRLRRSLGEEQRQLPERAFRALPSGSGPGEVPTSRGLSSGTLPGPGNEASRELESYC


Tests used:
Assay in all cases: cell-based or functional assay
human GIP receptor = target: T1, human GIP receptor
human GLP-1 receptor = human GLP-1 receptor (human, UniProt P43220 24-463)
human glucagon receptor = human glucagon receptor (human, UniProt P47871 26-477)
Sequence of human glucagon receptor (P47871 26-477): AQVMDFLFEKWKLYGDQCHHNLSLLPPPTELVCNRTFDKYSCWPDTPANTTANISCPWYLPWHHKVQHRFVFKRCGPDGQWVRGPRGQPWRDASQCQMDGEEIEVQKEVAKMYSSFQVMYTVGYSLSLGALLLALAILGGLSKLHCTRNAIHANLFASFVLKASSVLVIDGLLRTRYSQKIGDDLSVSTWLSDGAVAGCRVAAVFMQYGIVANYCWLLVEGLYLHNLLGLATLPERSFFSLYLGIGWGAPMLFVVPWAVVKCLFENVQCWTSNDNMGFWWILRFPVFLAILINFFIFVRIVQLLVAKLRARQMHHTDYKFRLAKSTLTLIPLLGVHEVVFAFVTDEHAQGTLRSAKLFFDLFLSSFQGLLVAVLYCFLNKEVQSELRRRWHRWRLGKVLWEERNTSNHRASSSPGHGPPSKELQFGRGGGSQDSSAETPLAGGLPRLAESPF

Binder | EC50 hGIP R [pM] (human GIP receptor) | EC50 hGLP-1 R [pM] (human GLP-1 receptor) | EC50 hGLUC R [pM] (human glucagon receptor)
Y[Aib]EGTFTSDLSIQK([γGlu-Stearoyl])ESRAAQEFIEWLKAGGPSSGAPPPS-NH2 (N-terminus assumed; SMILES CCCCCCCCCCCCCCCCCC(=O)N[C@@H](CCC(=O)NCCCC[C@H](NC(=O)[C@H](CCC(N)=O)NC(=O)[C@@H](NC(=O)[C@H](CO)NC(=O)[C@H](CC(C)C)NC(=O)[C@H](CC(=O)O)NC(=O)[C@H](CO)NC(=O)[C@@H](NC(=O)[C@H](Cc1ccccc1)NC(=O)[C@@H](NC(=O)CNC(=O)[C@H](CCC(=O)O)NC(=O)C(C)(C)NC(=O)[C@@H](N)Cc1ccc(O)cc1)[C@@H](C)O)[C@@H](C)O)[C@@H](C)CC)C(=O)N[C@@H](CCC(=O)O)C(=O)N[C@@H](CO)C(=O)N[C@@H](CCCNC(=N)N)C(=O)N[C@@H](C)C(=O)N[C@@H](C)C(=O)N[C@@H](CCC(N)=O)C(=O)N[C@@H](CCC(=O)O)C(=O)N[C@@H](Cc1ccccc1)C(=O)N[C@H](C(=O)N[C@@H](CCC(=O)O)C(=O)N[C@@H](Cc1c[nH]c2ccccc12)C(=O)N[C@@H](CC(C)C)C(=O)N[C@@H](CCCCN)C(=O)N[C@@H](C)C(=O)NCC(=O)NCC(=O)N1CCC[C@H]1C(=O)N[C@@H](CO)C(=O)N[C@@H](CO)C(=O)NCC(=O)N[C@@H](C)C(=O)N1CCC[C@H]1C(=O)N1CCC[C@H]1C(=O)N1CCC[C@H]1C(=O)N[C@@H](CO)C(N)=O)[C@@H](C)CC)C(=O)O) [SEQ ID NO: 21] | 6.4 | 4.8 | 10100
Y[Aib]EGTFTSDLSIQK([γGlu-Palmitoyl])ESRAAQDFIEWLKNTGPSSGAPPPS-NH2 (N-terminus assumed; SMILES CCCCCCCCCCCCCCCC(=O)N[C@@H](CCC(=O)NCCCC[C@H](NC(=O)[C@H](CCC(N)=O)NC(=O)[C@@H](NC(=O)[C@H](CO)NC(=O)[C@H](CC(C)C)NC(=O)[C@H](CC(=O)O)NC(=O)[C@H](CO)NC(=O)[C@@H](NC(=O)[C@H](Cc1ccccc1)NC(=O)[C@@H](NC(=O)CNC(=O)[C@H](CCC(=O)O)NC(=O)C(C)(C)NC(=O)[C@@H](N)Cc1ccc(O)cc1)[C@@H](C)O)[C@@H](C)O)[C@@H](C)CC)C(=O)N[C@@H](CCC(=O)O)C(=O)N[C@@H](CO)C(=O)N[C@@H](CCCNC(=N)N)C(=O)N[C@@H](C)C(=O)N[C@@H](C)C(=O)N[C@@H](CCC(N)=O)C(=O)N[C@@H](CC(=O)O)C(=O)N[C@@H](Cc1ccccc1)C(=O)N[C@H](C(=O)N[C@@H](CCC(=O)O)C(=O)N[C@@H](Cc1c[nH]c2ccccc12)C(=O)N[C@@H](CC(C)C)C(=O)N[C@@H](CCCCN)C(=O)N[C@@H](CC(N)=O)C(=O)N[C@H](C(=O)NCC(=O)N1CCC[C@H]1C(=O)N[C@@H](CO)C(=O)N[C@@H](CO)C(=O)NCC(=O)N[C@@H](C)C(=O)N1CCC[C@H]1C(=O)N1CCC[C@H]1C(=O)N1CCC[C@H]1C(=O)N[C@@H](CO)C(N)=O)[C@@H](C)O)[C@@H](C)CC)C(=O)O) [SEQ ID NO: 23] | 79.5 | 11.8 | 19100
Y[Aib]EGTFTSDLSIQK([γGlu-henicosanoyl])EKRAA[Aib]EFIEWLKNTGPSSGAPPPS-NH2 (N-terminus assumed; SMILES CCCCCCCCCCCCCCCCCCCCC(=O)N[C@@H](CCC(=O)NCCCC[C@H](NC(=O)[C@H](CCC(N)=O)NC(=O)[C@@H](NC(=O)[C@H](CO)NC(=O)[C@H](CC(C)C)NC(=O)[C@H](CC(=O)O)NC(=O)[C@H](CO)NC(=O)[C@@H](NC(=O)[C@H](Cc1ccccc1)NC(=O)[C@@H](NC(=O)CNC(=O)[C@H](CCC(=O)O)NC(=O)C(C)(C)NC(=O)[C@@H](N)Cc1ccc(O)cc1)[C@@H](C)O)[C@@H](C)O)[C@@H](C)CC)C(=O)N[C@@H](CCC(=O)O)C(=O)N[C@@H](CCCCN)C(=O)N[C@@H](CCCNC(=N)N)C(=O)N[C@@H](C)C(=O)N[C@@H](C)C(=O)NC(C)(C)C(=O)N[C@@H](CCC(=O)O)C(=O)N[C@@H](Cc1ccccc1)C(=O)N[C@H](C(=O)N[C@@H](CCC(=O)O)C(=O)N[C@@H](Cc1c[nH]c2ccccc12)C(=O)N[C@@H](CC(C)C)C(=O)N[C@@H](CCCCN)C(=O)N[C@@H](CC(N)=O)C(=O)N[C@H](C(=O)NCC(=O)N1CCC[C@H]1C(=O)N[C@@H](CO)C(=O)N[C@@H](CO)C(=O)NCC(=O)N[C@@H](C)C(=O)N1CCC[C@H]1C(=O)N1CCC[C@H]1C(=O)N1CCC[C@H]1C(=O)N[C@@H](CO)C(N)=O)[C@@H](C)O)[C@@H](C)CC)C(=O)O) [SEQ ID NO: 20] | 24.5 | 23.2 | 3310
Y[Aib]EGTFTSDLSIQK([γGlu-Palmitoyl])ESRAA[Aib]DFIEWLKNTGPSSGAPPPS-NH2 (N-terminus assumed; SMILES CCCCCCCCCCCCCCCC(=O)N[C@@H](CCC(=O)NCCCC[C@H](NC(=O)[C@H](CCC(N)=O)NC(=O)[C@@H](NC(=O)[C@H](CO)NC(=O)[C@H](CC(C)C)NC(=O)[C@H](CC(=O)O)NC(=O)[C@H](CO)NC(=O)[C@@H](NC(=O)[C@H](Cc1ccccc1)NC(=O)[C@@H](NC(=O)CNC(=O)[C@H](CCC(=O)O)NC(=O)C(C)(C)NC(=O)[C@@H](N)Cc1ccc(O)cc1)[C@@H](C)O)[C@@H](C)O)[C@@H](C)CC)C(=O)N[C@@H](CCC(=O)O)C(=O)N[C@@H](CO)C(=O)N[C@@H](CCCNC(=N)N)C(=O)N[C@@H](C)C(=O)N[C@@H](C)C(=O)NC(C)(C)C(=O)N[C@@H](CC(=O)O)C(=O)N[C@@H](Cc1ccccc1)C(=O)N[C@H](C(=O)N[C@@H](CCC(=O)O)C(=O)N[C@@H](Cc1c[nH]c2ccccc12)C(=O)N[C@@H](CC(C)C)C(=O)N[C@@H](CCCCN)C(=O)N[C@@H](CC(N)=O)C(=O)N[C@H](C(=O)NCC(=O)N1CCC[C@H]1C(=O)N[C@@H](CO)C(=O)N[C@@H](CO)C(=O)NCC(=O)N[C@@H](C)C(=O)N1CCC[C@H]1C(=O)N1CCC[C@H]1C(=O)N1CCC[C@H]1C(=O)N[C@@H](CO)C(N)=O)[C@@H](C)O)[C@@H](C)CC)C(=O)O) [SEQ ID NO: 24] | 23.5 | 13.5 | 38900
Y[Aib]EGTFTSDLSIQK([γGlu-Stearoyl])EKRAAQEFIEWLKNTGPSSGAPPPS-NH2 (N-terminus assumed; SMILES CCCCCCCCCCCCCCCCCC(=O)N[C@@H](CCC(=O)NCCCC[C@H](NC(=O)[C@H](CCC(N)=O)NC(=O)[C@@H](NC(=O)[C@H](CO)NC(=O)[C@H](CC(C)C)NC(=O)[C@H](CC(=O)O)NC(=O)[C@H](CO)NC(=O)[C@@H](NC(=O)[C@H](Cc1ccccc1)NC(=O)[C@@H](NC(=O)CNC(=O)[C@H](CCC(=O)O)NC(=O)C(C)(C)NC(=O)[C@@H](N)Cc1ccc(O)cc1)[C@@H](C)O)[C@@H](C)O)[C@@H](C)CC)C(=O)N[C@@H](CCC(=O)O)C(=O)N[C@@H](CCCCN)C(=O)N[C@@H](CCCNC(=N)N)C(=O)N[C@@H](C)C(=O)N[C@@H](C)C(=O)N[C@@H](CCC(N)=O)C(=O)N[C@@H](CCC(=O)O)C(=O)N[C@@H](Cc1ccccc1)C(=O)N[C@H](C(=O)N[C@@H](CCC(=O)O)C(=O)N[C@@H](Cc1c[nH]c2ccccc12)C(=O)N[C@@H](CC(C)C)C(=O)N[C@@H](CCCCN)C(=O)N[C@@H](CC(N)=O)C(=O)N[C@H](C(=O)NCC(=O)N1CCC[C@H]1C(=O)N[C@@H](CO)C(=O)N[C@@H](CO)C(=O)NCC(=O)N[C@@H](C)C(=O)N1CCC[C@H]1C(=O)N1CCC[C@H]1C(=O)N1CCC[C@H]1C(=O)N[C@@H](CO)C(N)=O)[C@@H](C)O)[C@@H](C)CC)C(=O)O) [SEQ ID NO: 19] | 13.8 | 4 | 708
Y[Aib]EGTFTSDLSIQK([γGlu-Palmitoyl])DSRAAQDFIEWLKAGGPSSGAPPPS-NH2 (N-terminus assumed; SMILES CCCCCCCCCCCCCCCC(=O)N[C@@H](CCC(=O)NCCCC[C@H](NC(=O)[C@H](CCC(N)=O)NC(=O)[C@@H](NC(=O)[C@H](CO)NC(=O)[C@H](CC(C)C)NC(=O)[C@H](CC(=O)O)NC(=O)[C@H](CO)NC(=O)[C@@H](NC(=O)[C@H](Cc1ccccc1)NC(=O)[C@@H](NC(=O)CNC(=O)[C@H](CCC(=O)O)NC(=O)C(C)(C)NC(=O)[C@@H](N)Cc1ccc(O)cc1)[C@@H](C)O)[C@@H](C)O)[C@@H](C)CC)C(=O)N[C@@H](CC(=O)O)C(=O)N[C@@H](CO)C(=O)N[C@@H](CCCNC(=N)N)C(=O)N[C@@H](C)C(=O)N[C@@H](C)C(=O)N[C@@H](CCC(N)=O)C(=O)N[C@@H](CC(=O)O)C(=O)N[C@@H](Cc1ccccc1)C(=O)N[C@H](C(=O)N[C@@H](CCC(=O)O)C(=O)N[C@@H](Cc1c[nH]c2ccccc12)C(=O)N[C@@H](CC(C)C)C(=O)N[C@@H](CCCCN)C(=O)N[C@@H](C)C(=O)NCC(=O)NCC(=O)N1CCC[C@H]1C(=O)N[C@@H](CO)C(=O)N[C@@H](CO)C(=O)NCC(=O)N[C@@H](C)C(=O)N1CCC[C@H]1C(=O)N1CCC[C@H]1C(=O)N1CCC[C@H]1C(=O)N[C@@H](CO)C(N)=O)[C@@H](C)CC)C(=O)O) [SEQ ID NO: 22] | 16.6 | 32 | 11600
